According to PMC3413289 (Science signaling, 2012):

Biological target: the molecule itself
Test: SEC

Protein | binding result
CC-L4-PlexinA1_(cyto) (other) VKQLEDKVEELLSKNAHLENEVARLKKLVGSSGSRDADRTLKRLQLQMDNLESRVALECKEAFAELQTDIHELTSDLDGAGIPFLDYRTYAMRVLFPGIEDHPVLKEMEVQANVEKSLTLFGQLLTKKHFLLTFIRTLEAQRSFSMRDRGNVASLIMTALQGEMEYATGVLKQLLSDLIEKNLESKNHPKLLLRRTESVAEKMLTNWFTFLLYKFLKECAGEPLFMLYCAIKQQMEKGPIDAITGEARYSLSEDKLIRQQIDYKTLTLNCVNPEHENAPEVPVKGLNCDTVTQVKEKLLDAVYKGVPYSQRPKAGDMDLEWRQGRMARIILQDEDVTTKIDNDWKRLNTLAHYQVTDGSSVALVPKQTSAYNISNSSTFTKSLSRYESMLRTASSPDSLRSRTPMITPDLESGTKLWHLVKNHDHLDQREGDRGSKMVSEIYLTRLLATKGTLQKFVDDLFETIFSTAHRGSALPLAIKYMFDFLDEQADKHQIHDSDVRHTWKSNCLPLRFWVNVIKNPQFVFDIHKNSITDACLSVVAQTFMDSCSTSEHKLGKDSPSNKLLYAKDIPNYKSWVERYYADIAKMPAISDQDMSAYLAEQSRLHLSQFNSMSALHEIYSYIAKYKDEILVALEKDEQARRQRLRSKLEQVVDTMALSS | binds
coiled-coil PlexinA1_(cyto) fusion with the 7-residue linker (other) VKQLEDKVEELLSKNAHLENEVARLKKLVGSSGSSGSRDADRTLKRLQLQMDNLESRVALECKEAFAELQTDIHELTSDLDGAGIPFLDYRTYAMRVLFPGIEDHPVLKEMEVQANVEKSLTLFGQLLTKKHFLLTFIRTLEAQRSFSMRDRGNVASLIMTALQGEMEYATGVLKQLLSDLIEKNLESKNHPKLLLRRTESVAEKMLTNWFTFLLYKFLKECAGEPLFMLYCAIKQQMEKGPIDAITGEARYSLSEDKLIRQQIDYKTLTLNCVNPEHENAPEVPVKGLNCDTVTQVKEKLLDAVYKGVPYSQRPKAGDMDLEWRQGRMARIILQDEDVTTKIDNDWKRLNTLAHYQVTDGSSVALVPKQTSAYNISNSSTFTKSLSRYESMLRTASSPDSLRSRTPMITPDLESGTKLWHLVKNHDHLDQREGDRGSKMVSEIYLTRLLATKGTLQKFVDDLFETIFSTAHRGSALPLAIKYMFDFLDEQADKHQIHDSDVRHTWKSNCLPLRFWVNVIKNPQFVFDIHKNSITDACLSVVAQTFMDSCSTSEHKLGKDSPSNKLLYAKDIPNYKSWVERYYADIAKMPAISDQDMSAYLAEQSRLHLSQFNSMSALHEIYSYIAKYKDEILVALEKDEQARRQRLRSKLEQVVDTMALSS | binds
coiled-coil PlexinA1_(cyto) fusion with the 1-residue linker (other) VKQLEDKVEELLSKNAHLENEVARLKKLVGSRDADRTLKRLQLQMDNLESRVALECKEAFAELQTDIHELTSDLDGAGIPFLDYRTYAMRVLFPGIEDHPVLKEMEVQANVEKSLTLFGQLLTKKHFLLTFIRTLEAQRSFSMRDRGNVASLIMTALQGEMEYATGVLKQLLSDLIEKNLESKNHPKLLLRRTESVAEKMLTNWFTFLLYKFLKECAGEPLFMLYCAIKQQMEKGPIDAITGEARYSLSEDKLIRQQIDYKTLTLNCVNPEHENAPEVPVKGLNCDTVTQVKEKLLDAVYKGVPYSQRPKAGDMDLEWRQGRMARIILQDEDVTTKIDNDWKRLNTLAHYQVTDGSSVALVPKQTSAYNISNSSTFTKSLSRYESMLRTASSPDSLRSRTPMITPDLESGTKLWHLVKNHDHLDQREGDRGSKMVSEIYLTRLLATKGTLQKFVDDLFETIFSTAHRGSALPLAIKYMFDFLDEQADKHQIHDSDVRHTWKSNCLPLRFWVNVIKNPQFVFDIHKNSITDACLSVVAQTFMDSCSTSEHKLGKDSPSNKLLYAKDIPNYKSWVERYYADIAKMPAISDQDMSAYLAEQSRLHLSQFNSMSALHEIYSYIAKYKDEILVALEKDEQARRQRLRSKLEQVVDTMALSS | binds
